For two molecules, Kd results are on record in patent publication US20100076177A1 (published 2010).

For one test, the target named is T1, hDC-SIGN (human, UniProt Q9NNX6 60-404).
T1 chain: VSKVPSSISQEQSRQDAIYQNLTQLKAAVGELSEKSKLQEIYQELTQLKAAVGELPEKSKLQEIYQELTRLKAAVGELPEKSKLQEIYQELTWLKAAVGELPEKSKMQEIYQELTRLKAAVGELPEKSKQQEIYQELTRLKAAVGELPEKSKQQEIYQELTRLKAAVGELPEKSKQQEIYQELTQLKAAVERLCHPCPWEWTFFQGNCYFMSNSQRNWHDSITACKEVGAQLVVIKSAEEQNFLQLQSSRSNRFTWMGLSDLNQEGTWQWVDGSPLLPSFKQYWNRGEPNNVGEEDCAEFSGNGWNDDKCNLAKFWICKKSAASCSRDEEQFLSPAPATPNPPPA
The test can be described thus: BIAcore 3000. A general note: In SPR one partner is held on a chip, and binding of the other changes the refractive index at the surface.

Test [1] has as its target mannan-binding lectin (MBL) (human, UniProt P11226 21-248). The test can be described thus: BIAcore 3000.

One may read the Kd as the concentration at which binding is half-saturated. Read a low Kd as tighter binding.

Chain of mannan-binding lectin (MBL) (P11226 21-248): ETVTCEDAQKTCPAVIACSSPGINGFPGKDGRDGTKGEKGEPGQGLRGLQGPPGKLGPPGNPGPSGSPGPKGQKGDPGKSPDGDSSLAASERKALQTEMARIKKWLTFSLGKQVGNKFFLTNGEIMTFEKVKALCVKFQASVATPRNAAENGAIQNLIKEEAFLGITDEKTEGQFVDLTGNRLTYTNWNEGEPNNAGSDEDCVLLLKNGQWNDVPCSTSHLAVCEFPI

B1: AZN-D1, murine monoclonal antibody directed to h-DC-SIGN (the "initial antibody" of Example 2) (antibody, V domains shown)
VH: QVQLQQSGPQSVRPGASVKISCKASGYSFTSYWMGWVKQRPGQGLEWIGMIDPFDSESRLNQEFKDKATLTVDKSSSTVYMQLSSPTSEDSAIYYCVRRNGGYYVFDSWGQGTTLTVSS
VL: DVLMTQSPLSLPVSLGDKASISCRSSQNIVHSNGDTYLEWYLQRPGQSPKLLIFKVSNRFSGVPDRFSGSGSGTDFILKISRVEAEDLGVYYCFQGSHVPWTFGGGTKLEIK
With B1, in the test with hDC-SIGN, the Kd was determined as 3.88 nM.

B2: murine monoclonal antibody directed to human mannose binding lectin (the "initial antibody" of Example 1) (antibody, V domains shown)
VH: VQLQESGPGLVKPSQSLSLTCTVTGYSITSDYAWNWIRQFPGNKLEWMGYISYSGSTSYNPSLKSRVSITRDTSKNQFFLQLNSVTTEDTATYYCARWESWFAYWGQGTLVTVSA
VL: DIVLTQSPATLSVTPGDSVSLSCRASQSISNDLHWYQQKSHESPRLLIKYASQSISGIPSRFSGSGSGTDFTLSINSVETEDFGMYFCQQSNSWPYTFGGGTKLEIK
For the molecule B2, in test [1], the Kd stood at 1.24 nM.
